Reference: the nanobody polyreactivity screen of Harvey et al. (2022)

Experiment: yeast display, Sf9 membrane polyspecificity reagent, FACS + sequencing; frameworks hold sequencing errors
Summary of the method: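 Nanobodies from a synthetic yeast display library (Saccharomyces cerevisiae BJ5465), induced 36–48 hours with galactose, were stained 1 hour at 4 °C with 10% biotinylated, detergent-solubilized Sf9 membrane reagent, enriched on streptavidin microbeads, then FACS-sorted. Anti-HA (expression) and streptavidin (reagent binding) fluorescence set low and high (top ~1%) gates. Polyreactivity labels come from the gate of origin. Genes were colony-PCR amplified, MiSeq 2 × 250 sequenced and filtered by CDR length.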

Sequence | polyreactivity (PSR sort gate)
QVQLVESGGGLVQAGGSLRLSCAASGSTSYRYAMGWYRQAPGKERELVAAISSSGGSTYYADSVKGRFTISRDNAKNTVYLQMNSLKPEDTAVYYCAARFYSGPGGYTMYYWGQGTQVTVSS | high polyreactivity
QVQLVESGGGLVQAGGSLRLSCAASGSTSYTNAMGWYRQAPGKERELVARITNDGSTTYADSVKGRFTISRDNAKNTVYLQMNSLKPEDTAVYYCARPYRFWRYYGMYYWGQGTQVTVSS | high polyreactivity
QVQLVESGGGLVQAGGSLRLSCAASGSTSYWYAMGWYRQAPGKERELVAAISSDDSTHYADSVKGRFTISRDNAKNTVYLQMNSLKPEDTAVYYFNREHYLIRYDYWGQGTQVTVSS | low polyreactivity
QVQLVESGGGLVQAGGSLRLSCAASGSTSYYYTMGWYRQAPGKERELVASISSSGTSTYYADSVKGRFTISRDNPKNTVYLQMNSLKPEDTAVYYCAATADNNTPSGYDYWGQGTQVTVSS | high polyreactivity
QVQLVESGGGLVQAGGSLRLSCAASGSTVGHYAMGWYRQAPGKERELVAAISVSGGSTYYADSVKGRFTISRDTAKNTVYLQMNSLKPEDTAVYYCAREYAHLSFLSTSSDYWGQGTQVTVSS | low polyreactivity
QVQLVESGGGLVQAGGSLRLSCAASGSTVHYMGWYRQAHGKESELVAGISWSGGSTYYADSVKGRFTISRDNAKKTVYLQINSLKPEDTAVYYCAADIKIRLYTTGDYWGQGTQVTVSS | low polyreactivity
QVQLVESGGGLVQAGGSLRLSCAASGSTVHYMGWYRQAPGKERELVAGISWSGGSTYYADSVKGRFTISRDNAKNTVYLQMNSLKPEDTAVYYCAADIKIRLYTTGDYWGQGSQVTVSS | low polyreactivity
QVQLVESGGGLVQAGGSLRLSCAASGSTVWFYAMGWYRQAPGKERELVAVISNSGSTYYADSVKGRFTISRDNAKNTVYLQMNSLKPEDTAVYYCNKDGGGDSYWYDYWGQGTQVTVSS | low polyreactivity
QVQLVESGGGLVQAGGSLRLSCAASGSTYAFYAMGWYRQAPGKERELVAAITSGGSTKYADSVKGRFTISRDNAKNTVYLQMNSLKPEDTAFYYCAARSRWSKLFRYDYWGQGTQVTVSS | high polyreactivity
QVQLVESGGGLVQAGGSLRLSCAASGSTYATYAMGWYRQAPGKERELVAVITRGGRTYYADSVKGRFTISRDNAKNTVYLQMNSLKPEDTAVYYCAARTLWYVIFTLHDYNYWGQGTQVTVSS | high polyreactivity
QVQLVESGGGLVQAGGSLRLSCAASGSTYDYNAMGWYIQAPGKERELDAAINSGASTYYGDSVKGRFTISRDNEKNSVYLQMNSMKPEDTAVYYCAKDYPYIGDYWGQCTQVTVSS | low polyreactivity
QVQLVESGGGLVQAGGSLRLSCAASGSTYGGYTMGWYRPAPGKVWELVAAIRLSGVSTYYADSVKGRFTISRDNAKNTVYLQMNSLKPEDTAVYYCAARGWYRYGSVYYIGDYWGQGTQVTVSS | high polyreactivity
QVQLVESGGGLVQAGGSLRLSCAASGSTYISYAMGWYRQAPGKERELVAAITVSGGRTYYADSVKGRFTISRDNAKNTVYLQMNSLKPEDTAVYYCARGYARSRRWRFDYWGQGTQVTVSS | high polyreactivity
QVQLVESGGGLVQAGGSLRLSCAASGSTYKFYAMGWYRQATGKERELVAAISGSSGSTYYADSVKGRFTISRDNAKNTVYLQMNSLKPEDTAVYYWNTQYSRYYTRYSAYDYWGQGTQVTVSS | low polyreactivity
QVQLVESGGGLVQAGGSLRLSCAASGSTYKGYAMGWYRQAPGKERELVAAISSSGGGTYYADSVKGRFTISRDNAKNTVYLQMNSLKPEDTAVYYCAATYYRGNYRTHYDYWGQGTQVTVSS | high polyreactivity
QVQLVESGGGLVQAGGSLRLSCAASGSTYLYAIRWYRQAPGKERELVAAISWSGGSTYYADSVKGRFTISRDNAKNTVYLQMNSLKPEDTAVYYCNAYTYPFDWGQGTQVTVSS | high polyreactivity
QVQLVESGGGLVQAGGSLRLSCAASGSTYRDYAKGWYRQAPGKERELVASITSGSSTYYADSLKGRFTMSRDNAKNTVYLQMNSLKPEDTAVYYCATGRQYDLHRLRHDYWGQGTQVTVSS | low polyreactivity
QVQLVESGGGLVQAGGSLRLSCAASGSTYRGYAMGWYRQAPGKEMELVAAISNRGTRTYYADSVKGRFTISRYNAKNTFYLQMNSLKPEDTAVYYFSAGNRVHRFDYWGQGTQVTVSS | high polyreactivity
QVQLVESGGGLVQAGGSLRLSCAASGSTYRLYAMGWYRQAPGKERELVAAITWRGTTYYADSVKGRFTISRDNAKNTVYLQMNSLKPEDTAVYYCAARAPVAGYKYRYDYWGQGTQVTVSS | high polyreactivity
QVQLVESGGGLVQAGGSLRLSCAASGSTYRVKAMGWYRQAPGKEREFVAAITRGGSTNYADSVKGRFTISRDNAMNTVYLQMNSLKPEDTAVYYCATAYRGRAWGYVYWGQGTQVTVSS | high polyreactivity
QVQLVESGGGLVQAGGSLRLSCAASGSTYRYYDMGWYRQAPGKERELVAAITWSGGTTYYADSVKGRFTISRDNAKNTVYLQMNSLKPEDTAVYYCAADSVLTPYDYWGQGTQVTVSS | low polyreactivity
QVQLVESGGGLVQAGGSLRLSCAASGSTYYKYAMGTDRPAPGKERELVASSSRSGGSTSYADSVKGRFTISRDNAKNTVYLQMNSVKPEDTAVYYCAATWRQHPGSMGYWGQGTQVTVSS | high polyreactivity

Sequence | polyreactivity (PSR sort gate)
QVQLVESGGGLVQAGGSLRLSCAASGSTYYPYAMGWSRQAPGKEWQFVAAITWSGGSTYADSVKGRFTISRDNAKNTVNLQMNSLKPEDTAGYYCAAQPFVIDGGYRGDYWGQGTQETVSS | low polyreactivity
QVQLVESGGGLVQAGGSLRLSCAASGSTYYWYMGWYRQAPGKERELVAAITSGGRTYYADSVKGRFTISRDNAKNTVYLQMNSLKPEDTAVYYCARPYSRAYDYWGQGTQVTVSS | high polyreactivity
QVQLVESGGGLVQAGGSLRLSCAASGSTYYYNAMGSYRQAPGKDRELVARISRSGGSTYADSVKGRFTISRDNAKNTVYLQMNSLKPEDTAVYYCNADAYGTPEFTSYAVRYDYWGQGTQVTVSS | low polyreactivity
QVQLVESGGGLVQAGGSLRLSCAASGSTYYYYMGWYRQAPGKERELVASISYTGSRTYYADSVKGRFTISRDNAKNTVYLQMNSLKPEDTAVYYCAAARSRARSYYYWGQGTQVTVSS | high polyreactivity
QVQLVESGGGLVQAGGSLRLSCAASGSYTMGWYRQAPGKERELVAAISKSGGSTYYADSVKGRFTISRDNAKNTVYLQMNRLKPEDTAVYYCAAVGWWGTYDYWGQGTQVTVSS | high polyreactivity
QVQLVESGGGLVQAGGSLRLSCAASGTFAGNAIGWYRQAPGKERELVAAINSGGSTNYADSVKGRFTISRDNAKNTVYLQMNSLKPEDTAVYYCAADSVWSPVDYDYWGQGSQVTVSS | low polyreactivity
QVQLVESGGGLVQAGGSLRLSCAASGTFGGYAMGWYRQAPGKERELVARIRRNGGSTYYADSVKGRFTISRDTAKNTVYLQMNSLKPEDTAVYYCATDQLSLSSYFRPYDYGYWGQGTQVTVSS | high polyreactivity
QVQLVESGGGLVQAGGSLRLSCAASGTFIGYAMGWYRQAPGKERELVAAIDVSGGSTYYADSVKGRFTISRDNAKNTVYLQMNSLKPEDTAVYYCATDRGPEVVLYDYWGHGTQVTVSS | low polyreactivity
QVQLVESGGGLVQAGGSLRLSCAASGTFRRYTMGWYRQAPGKERELVAAITSSGGTYYADSVKGRFTISRDNAKNTVYLQMNSLKPEDTAVYYCAARDYWSRYFRPGIVGWHDYWGQGTQVTVSS | high polyreactivity
QVQLVESGGGLVQAGGSLRLSCAASGTFTVNTMGWSRQAPGKERELVAAISTGDTTTYADSVKGRFTISRDNAKNTVYLQMNSLKPEDTAVYYCNAVAKLYYWRYDYWGQGTQVTVSS | low polyreactivity
QVQLVESGGGLVQAGGSLRLSCAASGTFVLSAMGWYRPAPGKERELVAAISKTGRTYYADSVKGRFTISRDNAKNTVYLQMNSLKPEDTSVYYCAAQRFSKFGYWGQGTQVTVSS | high polyreactivity
QVQLVESGGGLVQAGGSLRLSCAASGTFWGYAMGWYRQAPGKERELVAAISASGASTSYADSVKGRFTISRDNAKNTVYLQMNSLKPEDTAVYYCDARRNTAYGYWGQGTQVTVSS | high polyreactivity
QVQLVESGGGLVQAGGSLRLSCAASGTFYTNAMGWYRPAPGKERELVAAITSGGSTYYADSVKGRFTISRDNAKNTVYLQMNSLKPEDTAVYYCAADPVSHGYDIDYDYWGQGTQVTVSS | low polyreactivity
QVQLVESGGGLVQAGGSLRLSCAASGTFYYYAMGWYRPAPGKERELVAAIDYSGGSTYYADSVKGRFTISRDNAKNTVYLQMNSLKPEDTAVYYCAYVSVYDFEYWGQGTQVTVSS | high polyreactivity
QVQLVESGGGLVQAGGSLRLSCAASGTIFDSYAKVWYRQAPGKERELVAAISSSVGSTYYADSVKGRFTISRDNAKNTVYLQMNSLKPEDTAVYYCNADEYWASGYDPYDYWGQGTQVTVSS | low polyreactivity
QVQLVESGGGLVQAGGSLRLSCAASGTIFFPNAMGWYREAPGKERELVAAISWSGDSTYADSVKGRFTISRDNAKNTVYLQMNSLKPQDTAVYYCAAVYLWWSYEFDYWGQGTQVTVSS | low polyreactivity
QVQLVESGGGLVQAGGSLRLSCAASGTIFQQYAMGWYRQAPGKERELVAAISYSGGTTYYADSVKGRFTISRDNAKNTDYLEMNSLKPEDTAVYYCAAYYPSGSYDYYWGQGTQVTVSS | low polyreactivity
QVQLVESGGGLVQAGGSLRLSCAASGTIFVPYAMGWYRQAPGKERELVAVITSGGSTYYADSVKGRFTISRDNAKNTVYLQMNSLKPEDTAVYYCNADLYYVWSTLSQFDYWGQGTQVTVSS | low polyreactivity
QVQLVESGGGLVQAGGSLRLSCAASGTIFYDNAMGWYRQAPAKERELVASIRWSGDSTYYADSVKGRFTISRDNAKNTVYLQMISLKPEDTAVYYCAADPVEPYFTAIAYDYWGQGTQVTVSS | low polyreactivity
QVQLVESGGGLVQAGGSLRLSCAASGTTFAYYAMGWYRQAPGKERELVAVISVRGGSTYYADSVKGRFTISRDNAKNTVYLQMNSLKPEDTAVYYCAADTFAGYYYWGQGTQVTVSS | high polyreactivity
QVQLVESGGGLVQAGGSLRLSCAASGTTFPRYAMGWYRQAPGKERELVAAISSGGSTYYADSVKGRFTISRDNAKNTVYLQMNRLKPEDTAVYYCNARRSRSRYDYWGQGTQVTVSS | high polyreactivity
